These results are taken from IntAct's records for PubMed 31515488.

First the molecules themselves.
B1: Fructose-1,6-bisphosphatase isozyme 2 (Homo sapiens), O00757 (parent)
chain: MTDRSPFETDMLTLTRYVMEKGRQAKGTGELTQLLNSMLTAIKAISSAVRKAGLAHLYGIAGSVNVTGDEVKKLDVLSNSLVINMVQSSYSTCVLVSEENKDAIITAKEKRGKYVVCFDPLDGSSNIDCLASIGTIFAIYRKTSEDEPSEKDALQCGRNIVAAGYALYGSATLVALSTGQGVDLFMLDPALGEFVLVEKDVKIKKKGKIYSLNEGYAKYFDAATTEYVQKKKFPEDGSAPYGARYVGSMVADVHRTLVYGGIFLYPANQKSPKGKLRLLYECNPVAYIIEQAGGLATTGTQPVLDVKPEAIHQRVPLILGSPEDVQEYLTCVQKNQAGS
B2: Notch homolog 2 N-terminal-like protein A (Homo sapiens), Q7Z3S9 (parent)
chain: MCVTYHNGTGYCKCPEGFLGEYCQHRDPCEKNRCQNGGTCVAQAMLGKATCRCASGFTGEDCQYSTSHPCFVSRPCLNGGTCHMLSRDTYECTCQVGFTGKECQWTDACLSHPCANGSTCTTVANQFSCKCLTGFTGQKCETDVNECDIPGHCQHGGTCLNLPGSYQCQCLQGFTGQYCDSLYVPCAPSPCVNGGTCRQTGDFTFECNCLPETVRRGTELWERDREVWNGKEHDEN
partner: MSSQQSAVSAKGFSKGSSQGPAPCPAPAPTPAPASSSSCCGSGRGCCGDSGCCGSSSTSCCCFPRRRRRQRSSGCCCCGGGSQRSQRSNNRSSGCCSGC
B3: Protein LDOC1 (Homo sapiens), O95751 (parent)
chain: MVDELVLLLHALLMRHRALSIENSQLMEQLRLLVCERASLLRQVRPPSCPVPFPETFNGESSRLPEFIVQTASYMLVNENRFCNDAMKVAFLISLLTGEAEEWVVPYIEMDSPILGDYRAFLDEMKQCFGWDDDEDDDDEEEEDDY
partner: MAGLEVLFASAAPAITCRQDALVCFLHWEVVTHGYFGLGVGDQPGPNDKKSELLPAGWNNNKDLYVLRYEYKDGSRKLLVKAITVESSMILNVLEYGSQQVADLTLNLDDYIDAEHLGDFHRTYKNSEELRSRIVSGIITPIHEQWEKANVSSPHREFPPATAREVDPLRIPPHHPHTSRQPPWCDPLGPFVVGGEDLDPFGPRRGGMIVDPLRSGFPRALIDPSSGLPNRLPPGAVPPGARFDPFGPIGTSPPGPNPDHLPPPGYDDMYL
B4: Cyclin-D1-binding protein 1 (Homo sapiens), O95273 (parent)
chain: MASATAPAAAVPTLASPLEQLRHLAEELRLLLPRVRVGEAQETTEEFNREMFWRRLNEAAVTVSREATTLTIVFSQLPLPSPQETQKFCEQVHAAIKAFIAVYYLLPKDQGITLRKLVRGATLDIVDGMAQLMEVLSVTPTQSPENNDLISYNSVWVACQQMPQIPRDNKAAALLMLTKNVDFVKDAHEEMEQAVEECDPYSGLLNDTEENNSDNHNHEDDVLGFPSNQDLYWSEDDQELIIPCLALVRASKACLKKIRMLVAENGKKDQVAQLDDIVDISDEISPSVDDLALSIYPPMCHLTVRINSAKLVSVLKKALEITKASHVTPQPEDSWIPLLINAIDHCMNRIKELTQSELEL
partner: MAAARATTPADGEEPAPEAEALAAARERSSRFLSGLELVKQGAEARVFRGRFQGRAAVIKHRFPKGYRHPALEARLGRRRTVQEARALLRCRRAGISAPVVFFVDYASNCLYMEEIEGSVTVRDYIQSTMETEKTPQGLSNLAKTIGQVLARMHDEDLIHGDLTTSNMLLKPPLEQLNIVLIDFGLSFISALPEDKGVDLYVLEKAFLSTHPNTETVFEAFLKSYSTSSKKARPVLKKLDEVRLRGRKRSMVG

Variants of B1 are the subject of the first assay. The note with it: with FBP1, P09467.
Sequence of FBP1, P09467 (P09467 whole entry): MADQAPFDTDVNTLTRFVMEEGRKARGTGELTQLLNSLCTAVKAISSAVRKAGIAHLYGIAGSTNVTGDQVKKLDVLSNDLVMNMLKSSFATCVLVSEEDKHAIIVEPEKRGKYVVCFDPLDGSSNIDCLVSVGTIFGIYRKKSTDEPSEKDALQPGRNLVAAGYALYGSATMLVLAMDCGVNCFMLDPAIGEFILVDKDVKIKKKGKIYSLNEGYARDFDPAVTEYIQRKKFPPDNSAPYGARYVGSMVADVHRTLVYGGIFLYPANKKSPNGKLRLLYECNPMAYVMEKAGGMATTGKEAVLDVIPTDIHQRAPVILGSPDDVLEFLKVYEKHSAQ
Take Y216C: the “effect of a mutation on the interaction” value is “with no effect”.

Another assay covers variants of B2. The conditions noted are these: with crct1_human CRCT1, Q9UGL9.
For the variant A115T, the “effect of a mutation on the interaction” value is recorded as “with no effect”.
The same measure, in the same setting: the same measure for R74Q: “with no effect”.

In a further assay the parent is B3. The conditions noted are these: with psmf1_human PSMF1, Q92530.
For the variant L12H, the “effect of a mutation on the interaction” value was “disrupting interaction strength”.

Variants of B4 are the subject of another assay. The note with it: with prpk_human TP53RK.
As for I277T, the “effect of a mutation on the interaction” value was “disrupting interaction strength”.
